Data from patent publication US20240270821A1, “GIP/GLP1/GCG TRI-RECEPTOR AGONISTS AND USES THEREOF” (priority 2023, published 2024).
Substitutions are numbered along the chain they refer to.

B1: Example 141 (peptide)
chain: YXQGTFTSDFSKXLDKKAQXAFIEYLLEGGPSSGAPPPSGS
modifications: synthetic construct; SITE 2: note = 2-Aminoisobutyric Acid; SITE 13: note = alpha-methyl-leucine; SITE 17: note = Lysine is chemically modified through conjugation of the epsilon-amino group of the Lysine side chain with (2-[2-(2-Amino-ethoxy)-ethoxy]-acetyl)-(gamma-Glu)-CO-(CH2) 16-CO2H; SITE 20: n
B2: Example 126 (peptide)
chain: B1 chain with K12X, Y25W, P31H, S39E
modifications: synthetic construct; SITE 2: note = 2-Aminoisobutyric Acid; SITE 12: note = L-ornithine; SITE 13: note = alpha-methyl-leucine; SITE 17: note = Lysine is chemically modified through conjugation of the epsilon-amino group of the Lysine side chain with (2-[2-(2-Amino-ethoxy)-ethoxy]-acetyl)-(gamma-Glu)
B3: Example 117 (peptide)
chain: B1 chain with K12X, G29A, A35E, S41E
modifications: synthetic construct; SITE 2: note = 2-Aminoisobutyric Acid; SITE 12: note = L-ornithine; SITE 13: note = alpha-methyl-leucine; SITE 17: note = Lysine is chemically modified through conjugation of the epsilon-amino group of the Lysine side chain with (2-[2-(2-Amino-ethoxy)-ethoxy]-acetyl)2-(gamma-Glu)
B4: Example 110 (peptide)
chain: B1 chain with K12X, G29X, S41E
modifications: synthetic construct; SITE 2: note = 2-Aminoisobutyric Acid; SITE 12: note = L-ornithine; SITE 13: note = alpha-methyl-leucine; SITE 17: note = Lysine is chemically modified through conjugation of the epsilon-amino group of the Lysine side chain with (2-[2-(2-Amino-ethoxy)-ethoxy]-acetyl)-(gamma-Glu)
B5: Example 132 (peptide)
chain: B1 chain with F10X, K12R, G29X, P31E
modifications: synthetic construct; SITE 2: note = 2-Aminoisobutyric Acid; SITE 10: note = 3-(4-Pyridyl)-L-alanine; SITE 13: note = alpha-methyl-leucine; SITE 17: note = Lysine is chemically modified through conjugation of the epsilon-amino group of the Lysine side chain with (2-[2-(2-Amino-ethoxy)-ethoxy]-acetyl)
B6: Example 129 (peptide)
chain: B1 chain with K12X, G29A, S41E
modifications: synthetic construct; SITE 2: note = 2-Aminoisobutyric Acid; SITE 12: note = L-ornithine; SITE 13: note = alpha-methyl-leucine; SITE 17: note = Lysine is chemically modified through conjugation of the epsilon-amino group of the Lysine side chain with (2-[2-(2-Amino-ethoxy)-ethoxy]-acetyl)-(gamma-Glu)
B7: Example 143 (peptide)
chain: B1 chain with K12R
modifications: synthetic construct; SITE 2: note = 2-Aminoisobutyric Acid; SITE 13: note = alpha-methyl-leucine; SITE 17: note = Lysine is chemically modified through conjugation of the epsilon-amino group of the Lysine side chain with (2-[2-(2-Amino-ethoxy)-ethoxy]-acetyl)-(gamma-Glu)-CO-(CH2) 16-CO2H; SITE 20: n
B8: Example 113 (peptide)
chain: B1 chain with F10X, K12R, E28A, S41E
modifications: synthetic construct; SITE 2: note = 2-Aminoisobutyric Acid; SITE 10: note = 3-(4-Pyridyl)-L-alanine; SITE 13: note = alpha-methyl-leucine; SITE 17: note = Lysine is chemically modified through conjugation of the epsilon-amino group of the Lysine side chain with (2-[2-(2-Amino-ethoxy)-ethoxy]-acetyl)
B9: Example 111 (peptide)
chain: B1 chain with K12X, G29X, S41E
modifications: synthetic construct; SITE 2: note = 2-Aminoisobutyric Acid; SITE 12: note = L-ornithine; SITE 13: note = alpha-methyl-leucine; SITE 17: note = Lysine is chemically modified through conjugation of the epsilon-amino group of the Lysine side chain with (2-[2-(2-Amino-ethoxy)-ethoxy]-acetyl)2-(gamma-Glu)
B10: Example 136 (peptide)
chain: B1 chain with K12X, Y25W, P36X, S41E
modifications: synthetic construct; SITE 2: note = 2-Aminoisobutyric Acid; SITE 12: note = L-ornithine; SITE 13: note = alpha-methyl-leucine; SITE 17: note = Lysine is chemically modified through conjugation of the epsilon-amino group of the Lysine side chain with (2-[2-(2-Amino-ethoxy)-ethoxy]-acetyl)-(gamma-Glu)
B11: Example 148 (peptide)
chain: B1 chain with K12R, P31E
modifications: Aib, αMeL; lysine acylated C18 diacid; C-terminal amide; synthetic construct; SITE 2: note = 2-Aminoisobutyric Acid; SITE 13: note = alpha-methyl-leucine; SITE 17: note = Lysine is chemically modified through conjugation of the epsilon-amino group of the Lysine side chain with (2-[2-(2-Amino-ethoxy)-ethoxy]-acetyl)-(gamma-Glu)-CO-(CH2) 16-CO2H; SITE 20: n

molecular target: hGLP-1R (Homo sapiens, UniProt P43220); test: cell-based or functional assay
Sequence (P43220 24-463): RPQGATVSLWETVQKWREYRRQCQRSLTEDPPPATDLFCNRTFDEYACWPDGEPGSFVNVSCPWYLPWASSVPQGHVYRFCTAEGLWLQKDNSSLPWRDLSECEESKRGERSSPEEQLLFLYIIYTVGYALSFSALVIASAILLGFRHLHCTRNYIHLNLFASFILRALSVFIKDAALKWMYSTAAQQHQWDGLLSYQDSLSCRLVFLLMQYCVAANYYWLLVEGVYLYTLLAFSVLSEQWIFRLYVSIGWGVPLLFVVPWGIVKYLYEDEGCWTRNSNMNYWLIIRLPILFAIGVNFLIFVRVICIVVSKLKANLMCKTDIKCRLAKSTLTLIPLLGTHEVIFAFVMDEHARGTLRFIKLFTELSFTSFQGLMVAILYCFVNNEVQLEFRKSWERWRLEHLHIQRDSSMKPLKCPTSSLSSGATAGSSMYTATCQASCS

Compared with B1, B2 is 2-fold higher in Relative cAMP EC50: 1.96 nM for the first, 3.97 nM for the second.

Compared with B3, B4 is 2.1-fold lower in Relative cAMP EC50: 6.4 nM for the first, 2.99 nM for the second.

Going from B5 to B6, the Relative cAMP EC50 falls from 5.72 nM to 1.87 nM (3.1-fold).

Going from B7 to B8, the Relative cAMP EC50 rises from 2.44 nM to 3.93 nM (1.6-fold).

B9 and B10 are within 1.5-fold of each other in Relative cAMP EC50: 5.06 nM for the first, 3.8 nM for the second.

B1 and B2 are within 1.5-fold of each other in cAMP Rel EC50, nM (in the presence of 1% HSA): 562 nM for the first, 838 nM for the second.

Going from B3 to B4, the cAMP Rel EC50, nM (in the presence of 1% HSA) rises from 524 nM to 821 nM (1.6-fold).

Going from B5 to B6, the cAMP Rel EC50, nM (in the presence of 1% HSA) falls from 823 nM to 284 nM (2.9-fold).

B7 and B8 are within 1.5-fold of each other in cAMP Rel EC50, nM (in the presence of 1% HSA): 594 nM for the first, 467 nM for the second.

B9 and B10 are within 1.5-fold of each other in cAMP Rel EC50, nM (in the presence of 1% HSA): 878 nM for the first, 625 nM for the second.

Work on B11 yielded a Relative cAMP EC50, nM (0.1% casein) of 2.82 nM.

Binder B11 has a cAMP Rel EC50, nM (1% HSA) of 870 nM.

molecular target: T1, human GIP receptor (human) (UniProt P48546); test: cell-based or functional assay
T1 sequence (looked up): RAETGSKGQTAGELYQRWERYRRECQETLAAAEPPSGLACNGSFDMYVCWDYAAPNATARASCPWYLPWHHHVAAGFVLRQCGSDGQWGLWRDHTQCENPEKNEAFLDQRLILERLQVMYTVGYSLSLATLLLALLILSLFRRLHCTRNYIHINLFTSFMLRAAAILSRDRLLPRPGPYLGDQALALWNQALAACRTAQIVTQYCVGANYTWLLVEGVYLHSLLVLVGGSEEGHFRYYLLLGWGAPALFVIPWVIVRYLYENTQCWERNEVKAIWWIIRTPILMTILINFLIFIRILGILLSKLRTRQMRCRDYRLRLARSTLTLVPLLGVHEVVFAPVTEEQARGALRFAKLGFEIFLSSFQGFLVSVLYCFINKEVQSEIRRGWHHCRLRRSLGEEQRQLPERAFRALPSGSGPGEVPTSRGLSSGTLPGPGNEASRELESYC

B1 and B2 are within 1.5-fold of each other in Relative cAMP EC50: 0.21 nM for the first, 0.264 nM for the second.

First: B3
Second: B4
The Relative cAMP EC50 of the first is 2.6-fold higher: 0.267 nM for the first, 0.102 nM for the second.

Compared with B5, B6 is 1.6-fold lower in Relative cAMP EC50: 0.21 nM for the first, 0.134 nM for the second.

B7 and B8 are within 1.5-fold of each other in Relative cAMP EC50: 0.211 nM for the first, 0.24 nM for the second.

Going from B9 to B10, the Relative cAMP EC50 rises from 0.0888 nM to 0.221 nM (2.5-fold).

Going from B1 to B2, the cAMP Rel EC50, nM (in the presence of 1% HSA) falls from 62.1 nM to 40.3 nM (1.5-fold).

First: B3
Second: B4
The cAMP Rel EC50, nM (in the presence of 1% HSA) of the first is 1.5-fold higher: 29.9 nM for the first, 19.8 nM for the second.

B5 and B6 are within 1.5-fold of each other in cAMP Rel EC50, nM (in the presence of 1% HSA): 25.9 nM for the first, 24.3 nM for the second.

Going from B7 to B8, the cAMP Rel EC50, nM (in the presence of 1% HSA) falls from 63.9 nM to 32.3 nM (2-fold).

First: B9
Second: B10
The cAMP Rel EC50, nM (in the presence of 1% HSA) of the first is 3.2-fold lower: 10.4 nM for the first, 32.9 nM for the second.

With B11 the Relative cAMP EC50, nM (0.1% casein) was 0.352 nM.

Binder B11 has a cAMP Rel EC50, nM (1% HSA) of 74.2 nM.

molecular target: human GLP-1R (SNAP-GLP-1R expressed in HEK293 cells) (human) (UniProt P43220); test: cell-based or functional assay
Sequence (P43220 24-463): as the sequence (P43220 24-463) above

First: B1
Second: B2
The GLP1R Internalization EC50 of the first is 1.5-fold higher: 95.3 nM for the first, 63.2 nM for the second.

Compared with B3, B4 is 1.6-fold lower in GLP1R Internalization EC50: 45.5 nM for the first, 28.3 nM for the second.

First: B5
Second: B6
The GLP1R Internalization EC50 of the first is 3.2-fold higher: 72.7 nM for the first, 22.5 nM for the second.

First: B7
Second: B8
The GLP1R Internalization EC50 of the first is 8.5-fold higher: 337 nM for the first, 39.5 nM for the second.

B9 and B10 are within 1.5-fold of each other in GLP1R Internalization EC50: 49.1 nM for the first, 36.1 nM for the second.

For B11, the GLP1R Internalization EC50 was 95.5 nM.

Compared with B1, B2 is lower in Internalization % TOP: 64.1% for the first, 38.8% for the second.

Compared with B3, B4 is lower in Internalization % TOP: 51% for the first, 42.5% for the second.

Going from B5 to B6, the Internalization % TOP falls from 67.2% to 40.6%.

First: B7
Second: B8
The Internalization % TOP of the first is lower: 43% for the first, 64.6% for the second.

Going from B9 to B10, the Internalization % TOP falls from 46.4% to 37.8%.

B11 showed an Internalization % TOP of 37.4%.

molecular target: human glucagon receptor (human) (UniProt P47871); test: cell-based or functional assay
Sequence (P47871 26-477): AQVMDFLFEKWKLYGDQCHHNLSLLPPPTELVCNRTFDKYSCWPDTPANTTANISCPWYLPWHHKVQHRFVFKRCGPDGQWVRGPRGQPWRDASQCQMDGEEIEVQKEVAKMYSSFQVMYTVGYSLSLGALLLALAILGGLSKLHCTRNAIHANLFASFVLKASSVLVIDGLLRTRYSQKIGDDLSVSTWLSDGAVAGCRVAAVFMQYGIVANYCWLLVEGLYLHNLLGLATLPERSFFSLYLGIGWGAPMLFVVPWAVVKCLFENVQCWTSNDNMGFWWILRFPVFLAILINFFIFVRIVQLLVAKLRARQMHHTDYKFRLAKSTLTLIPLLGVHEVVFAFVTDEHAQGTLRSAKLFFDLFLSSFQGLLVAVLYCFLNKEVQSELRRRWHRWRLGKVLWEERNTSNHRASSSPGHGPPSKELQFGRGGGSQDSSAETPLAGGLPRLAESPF

Compared with B1, B2 is 3.8-fold higher in Relative cAMP EC50: 1.77 nM for the first, 6.81 nM for the second.

Going from B3 to B4, the Relative cAMP EC50 falls from 4.75 nM to 2.45 nM (1.9-fold).

B5 and B6 are within 1.5-fold of each other in Relative cAMP EC50: 2.63 nM for the first, 2.01 nM for the second.

Compared with B7, B8 is 2.7-fold higher in Relative cAMP EC50: 4.51 nM for the first, 12 nM for the second.

Compared with B9, B10 is 2.1-fold higher in Relative cAMP EC50: 4.25 nM for the first, 8.73 nM for the second.

B1 and B2 are within 1.5-fold of each other in cAMP Rel EC50, nM (in the presence of 1% HSA): 877 nM for the first, 1120 nM for the second.

B3 and B4 are within 1.5-fold of each other in cAMP Rel EC50, nM (in the presence of 1% HSA): 867 nM for the first, 627 nM for the second.

B5 and B6 are within 1.5-fold of each other in cAMP Rel EC50, nM (in the presence of 1% HSA): 632 nM for the first, 510 nM for the second.

B7 and B8 are within 1.5-fold of each other in cAMP Rel EC50, nM (in the presence of 1% HSA): 1690 nM for the first, 2090 nM for the second.

B9 and B10 are within 1.5-fold of each other in cAMP Rel EC50, nM (in the presence of 1% HSA): 1260 nM for the first, 960 nM for the second.

Binder B11 has a Relative cAMP EC50, nM (0.1% casein) of 3.92 nM.

Binder B11 has a cAMP Rel EC50, nM (1% HSA) of 1330 nM.
